This series in a line: protease stability score; higher = more stable; yeast display proteolysis, trypsin and chymotrypsin.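 Note: log10 excess protease needed over predicted unfolded state with 0 meaning unfolded.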
“DERKAEQNARDLAQALITGDPKRVMDLADENAEVQYGDKTYSGRERLDEVVRSFRRAVDHVDVDDIKEKGDHLRIKMTIQHNGQTRQVTLDIRVKNGKAEQIKFDFTDKDWYRRAIK” displayed a protease stability score of 0.344. Consider “DEDANNTAKEMLENIDEGNEKRWSELMDENATFNVGDKTYHGRENAEHLFRERKDEMRIEIDLHKVEVSGDHVVLDITVVKEHNGKPRRVDVQVEFRIHNGRMQEFVQDEHG”, for which the protease stability score is 0.245. “DEEALNLFHRMINAIQENDPDTLHRLVDPNARIQIGDHDIHGMKTYVREVEKTLRSMRIKFDIKSVDVTGDKVVIDEKVDFDINGKPVHNKVEMRIKAHNGTVKHLDWKVPEDELKKIEE” gave a protease stability score of -0.232.

With “EDENRSNIEDMIRAWNQNNPDEWRELADPNVKVQIGEKSIRGREEIAKDLKQMHKEIEVHFNLKRVRVQGDKAEVEMEFSNNHNGKPRSDNVVYDVLVDNGRIKSVKQNQVS”, the protease stability score was -0.141. The result for “DEENHTLAKMWFHAYNKGDEDQVRRMADPNVKIQIGDKVIHGRNDEVRWLKERRDHQRSDIKLDHVSASNGRVQIHFTFTVQHNGKPNTSKQQLSMVFQGDKLKSLHMRTDG” reads -0.112. For “DEEAVKKMMEEWHKALESKNDDQFRKIYKPNVEWVNGDTKRQGQEDVVKMLQKVQKDGAEFQVRDAKVEGDRARMVYDLNVGDKTATFTVEMDAEGGRVDRVQVEIDEKAKKVLTEG”, the protease stability score stood at 0.294.

For the sequence “EKEIVNNFKDWVRALTTGDEDRLRNYADPNAQFVVGEKRFHGMDDYVEDMRRRRTEIRVEIRVHHMNSTGEKIEIHAEQTHEHNGKPETHEFKMKAEVHNGRHKSVTQHDDG”, the protease stability score amounted to 0.201. “DEHDAESIQSVLTNGNFESMDELADKDVHVDVGNKRYHGQEQFRTLQTHYKNRVDHVDMHRLTQDGEKINADMRAVVNGKDFQFELVIKVHNGRIRRLQLNFTSDSQDKEHEERLR” showed a protease stability score of 0.496.

For “DESIMNMMHQLIDAMETNDPEKMKRLADKDATFVYGDKTVHGRHQAEEWIHKVKKHQRFRIDLRDVKADNGRVTVNAQIDQNHNGQPSQRTVDAKAEVSNGRVKHASVRRTS”, the protease stability score is -0.117.

The sequence “DEDRTRRMLEKVFEYVVKGDVDHVRKHGKPNVRYEYADKKKEGEEVYKLIVKIVKKVGAEAKRREQEVKGDTMRANFQYNKGDKTVQTTAEAQYEGDKADKLRAELTDEVKKVVHQG” displayed a protease stability score of -0.152. The sequence “DEEDAEDVVRKVNKILRDGDWEKFVNLMDKNAHARIGDQTYSGRSAAEDIARDVHRQVDHVEIKRVEVQGNTVHIDMVVEHNGREEKRVMDLIITNGRLRMVEYQHG” displayed a protease stability score of -0.107.

As to “EEEAAHQFNKWLSLMKHGNEHKASEMLDKDAHIKVGDKTLQGREDVQRDVRRRKEELKFSMTIVDYKDHGDKARLTVEQTNDHNGRPRTRRANVTVHVSNGRVKEIVINDDS”, the protease stability score is -0.265.

Sequence “DKREQSEIAKEVLRMLLTGDPDQNHKLADKDVQFSVGDRTITGREDLDRWLREMHHHIDTQEVKSLDVNGEDVVIDVVATFNGVHMRFVIRVEVHNGRIVNMRMEVTSEETLKRVDG” yielded a protease stability score of -0.092. Take “DDRNQAEKQVDEMRKIAKTGDEDRMADLFIDNPRFNVGDETYHGREQVVKYFRDTFRQVDHMHITLRRLSVHNGRVKAEFDVTLNRNGRETKDIFVVIQVKHNGTLRIESVHQK”: the protease stability score stood at 0.781.

Take “DQEAAEILKRFVKAIKTGDPDEAKEQMDKDVKVRVGDKVIHGREEVAKEVEQTNRNLRLEVEINDYTVDGDKVTIRMRIVTNENGRPDVKTVKVTAHAHNGRLVHLEIQSDS”: the protease stability score stood at 0.778. For the sequence “DEDLVERVQDLLEAERENDEDTVSKMVDPNVKFSYGNRELHGREQWTKHVAEKQKQMRIQIDIDSYSVQGNHATFTAKITVHINGKPMSDTVTFQIVFSNGKVEEVRMRIDPRFQREVES”, the protease stability score was 0.016. “DEEQQKEQKKRLREMIETNNEDELQRQADKDVKVVVGDQTYHGREEARKWVHELKRRVDHVRVDRVEAHGNKISARYRASVNGETQRYNMVIHITNGRIQHMRVTEG”: the protease stability score stood at 0.894.

In turn, “DEEDLRHLIELMEKGDFSRIADQADEDVRVDIGDKRIHGREQVLTYAEKLSKNIDHVKIQHYHVEGNKLVVDMVIVVNGKDVRATLTAEISNGRLKHMELHATNEEQQTRLKEIIS” came in with a protease stability score of 0.871. Under “DEEKVQDHNRKLWKLMKTGDSDQLRREMPPTAHAHVGDKSWHGSEAQNAMQEQARMQVDHLEVKKVDVTGDKIHQNVVRKENGRTENRVFAFQVDNGEIKQVEIRRS” stands -0.146; under “DEHLHKAVNQLWHAIKTNDPDKVQELADPNVRIQVGDKEIHGREEFAHQVRRTREQMRVRIDIKQVDVQGNKVDIEYDYEYNVNGQPRSDRVTAVFVLHNGKVQRMHIHISEEQLRQQEK”, 0.886; under “DEEAQKRAEELIRILQTGDPDKLMEMFDKDAHATIGDQTVRGREDMRRRQKELKETMDVKLDITDVKVTGEKIDIRIKATFNYNGQPAEDTIVFIIQQHNGRVQRFEVRIDEDVLRQLKK”, 0.184. Consider “DEEELKHVAELILKGDEKELSKMMDEDVRVHIGNKEYHGREQAEEAVKTLVDRADHFQVHDMRTSEGQIHVQLVVNINGENVNMYFVAEVHNGRIKEISARARDPREEEKFNKLLG”, for which the protease stability score came to 1.68. Regarding “DERENQENVEEMNRVLQSGDEDRMKELVDPNATAVVGEKRVHGRETIKDEIRRFKDHADHITVERVTAKGNSAIIDIVYNVNGRETTIIVIANVHNGKIRHLHFQKS”, the protease stability score turned out to be 0.301. For “EEEVAKHALEIMITGDPKQIKEMVDENAHVKVGNKEWHGREHMVHWAEQLHTQVDHREVRSMEVNGNTARVDLVVTINGHHIRFILRATIHNGRVQHLSLEVTNEEQQTQWERNLS”, the protease stability score turned out to be 0.075. In turn, “ESELDKQAEQIVRVLRTGDPEKVADNAPEDAELIIGDKTYHGREQIRDWVHTVNKQMRIQWDEFDVKVKGDKAKVEADVVYDVNGTPVEDKIVLIFVIHNGRVHAVHFDFDPEVWRSMES” yielded a protease stability score of 0.569. For the sequence “DEESREQQVHHMMEAIKTGDEDRARTLMDKDASLQVGDKVFQGRKEAAKAVSEIVRRVDRFRVDSVTVSGNQVDAKVQFEVNGRNMQATIRIQMHNGRIQHLVIEFRDPNQYREVKK”, the protease stability score was 1.05. Take “DDDLVRKAKKFYEIVETGDEDKIVKMLDKDAQINVGDRRIDGREDIKTFEHKQVQHMRIEFDSVHASHQGDKVRVRAQMTVDVNGNPITYQAEFVFNVKNGRIKNLEQRVDEKEMKKIKS”: the protease stability score turned out to be 0.007.

On to “DDDRVETVAQELAEAIMENDEDRAREMVDPNARIVYGEKDLHGREAFHTVMQLFQHRVDRVDLETVSVHNGRVKFEAVLKHNGTEHRVVFIVDAHNGKAKQVEVRDQ”, for which the protease stability score was found to be 0.862.

The sequence “DERLAKQVLTMMRNERTGNEHEVDKYVDPNARFQVGDQEIHGKEELRKEVSRRRNEMRIDFRVEDMKVHGDKVHLSFKNMKNHNGRPESFRATATVHVHNGTVKSVDIKTTK” gave a protease stability score of -0.453.

In the case of “DHEESKDIAEKAVKAIETGDPDKFVSNMDKDASARIGDKTYHGRENLRKAMEDFRNQVDHLRVQSYKVSGNTQKLDMRADFNGRTRVITVVMQMENGRVSFIRVHIE”, the protease stability score was -0.359. As for “DSKQRAKEFVKEFQRVLQKGDPDQAEKMADKDVRINVGDKTYHGREEMWKMAQEWQRKYDEMSITVSRIQTRPGRIVANAKLKLDNNGTTDDTHLVIVVREHNGHYRAVHIRLG”, the protease stability score worked out at 0.992.

In turn, “DEQVQKQFKEAMRNREKGDKDKVVENFDKHVKVSVGDRTYHGMDDIARRQNEHMKEIRVEYRDVKMSVDNGKIVIHVRQQLEDNGEPREFSYTAEANATNGRIKSYRVDMDPEQVREVDR” displayed a protease stability score of -0.215. Sequence “DEDLKKRFKRMLRNLQNNNEENAHELMDPNARWRYGDKVLHGHEQLIEEWKRIHDRMRVEYKSVEVTASGDKVVVEIVFTRHKNGSPDSDNTRWKAVYNNGKLKDMMVTEDG” had a protease stability score of 0.637. As for “DEDAARKIRKLVEDWANGDPQSVADQMDENAEVHIGDQTLHGRDHVRKFVEKLSEQIRISVQSVTVRASGNHITAHVQMEVDVNGHPDTITFRIHADVDNGRIKSMEYRMDEQEQRKRTS”, the protease stability score came to 0.346.

The values above are taken from the NTF2 design screens of Basanta et al. (2020).
